# Measurements taken from patent publication US20260234592.
# Test system: MBP5-TEV-paramyosin ΔSal (maltose binding protein domain and a paramyosin fragment linked by a TEV protease recognition sequence)
substance,measurement,value
"commercially available TEV protease (New England Biolabs, Inc. Catalog #P8112S)","cleavage of the substrate, 4° C., 1 hour",the commercially available enzyme only produced 62% cleavage in the same time
same,"cleavage of the substrate, 4° C., 3 hours","the commercial enzyme cleaved only 76% and 83% of the substrate at these times, respectively"
same,"cleavage of the substrate, 4° C., 5 hours","the commercial enzyme cleaved only 76% and 83% of the substrate at these times, respectively"
